Each block holds one binder with its values, some of them ahead of it.
Key:
[1] = target: T1, CD112R (full length, expressed on transfected cells) (human), Q6DKI7; assay: flow cytometry on cells expressing the target, 20 nM; conditions: remark: other sources report otherwise
T1 chain: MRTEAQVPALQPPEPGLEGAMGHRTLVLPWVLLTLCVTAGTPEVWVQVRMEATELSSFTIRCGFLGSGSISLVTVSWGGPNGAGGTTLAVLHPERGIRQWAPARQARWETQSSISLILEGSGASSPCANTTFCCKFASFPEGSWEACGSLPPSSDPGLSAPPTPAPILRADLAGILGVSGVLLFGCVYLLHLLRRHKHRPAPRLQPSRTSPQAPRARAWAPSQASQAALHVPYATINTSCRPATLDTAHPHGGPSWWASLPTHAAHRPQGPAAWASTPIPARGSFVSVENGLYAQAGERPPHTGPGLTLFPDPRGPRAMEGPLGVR

[2] = target: T1, CD112R (full length, expressed on …); assay: flow cytometry, 20 nM; ratio to WT CD112 IgV-Fc; conditions: remark: other sources report otherwise
[3] = target: CD96, expressed on transfected cells (UniProt P40200); assay: flow cytometry on transfected cells
[4] = target: CD112R, expressed on transfected cells (human) (UniProt Q6DKI7); assay: flow cytometry on transfected cells
[5] = target: T2, human TIGIT, full length, expressed on transfected cells (human) (UniProt Q495A1); assay: flow cytometry on transfected cells
T2 sequence: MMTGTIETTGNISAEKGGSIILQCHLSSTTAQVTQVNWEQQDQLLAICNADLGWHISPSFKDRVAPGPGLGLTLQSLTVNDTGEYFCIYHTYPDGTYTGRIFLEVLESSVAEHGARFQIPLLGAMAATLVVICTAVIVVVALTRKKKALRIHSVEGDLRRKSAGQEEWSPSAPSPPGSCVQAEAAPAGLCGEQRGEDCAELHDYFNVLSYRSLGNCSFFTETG

CD226 (human) = target: T3, CD226 (human) (UniProt Q15762); assay: flow cytometry, transfected cells
T3 sequence: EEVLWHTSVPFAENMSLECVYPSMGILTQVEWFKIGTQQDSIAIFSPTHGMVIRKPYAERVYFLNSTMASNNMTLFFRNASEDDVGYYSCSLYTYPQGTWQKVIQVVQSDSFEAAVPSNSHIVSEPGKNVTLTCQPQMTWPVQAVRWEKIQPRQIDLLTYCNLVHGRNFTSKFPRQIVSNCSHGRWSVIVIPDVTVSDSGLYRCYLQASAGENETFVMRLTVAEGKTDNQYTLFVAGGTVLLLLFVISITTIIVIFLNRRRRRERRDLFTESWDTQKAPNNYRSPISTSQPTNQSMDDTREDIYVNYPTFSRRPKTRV

TIGIT (human) [6] = target: T4, TIGIT (human) (UniProt Q495A1); assay: flow cytometry, transfected cells
T4 sequence: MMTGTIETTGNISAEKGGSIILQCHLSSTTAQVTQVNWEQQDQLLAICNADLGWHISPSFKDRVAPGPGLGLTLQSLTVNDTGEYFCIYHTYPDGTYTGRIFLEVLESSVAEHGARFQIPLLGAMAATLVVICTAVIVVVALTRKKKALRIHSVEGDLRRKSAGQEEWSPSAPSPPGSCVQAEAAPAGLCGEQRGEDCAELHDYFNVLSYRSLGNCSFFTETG

CD96 = target: T5, CD96 (UniProt P40200); assay: flow cytometry, cells
T5 sequence (looked up): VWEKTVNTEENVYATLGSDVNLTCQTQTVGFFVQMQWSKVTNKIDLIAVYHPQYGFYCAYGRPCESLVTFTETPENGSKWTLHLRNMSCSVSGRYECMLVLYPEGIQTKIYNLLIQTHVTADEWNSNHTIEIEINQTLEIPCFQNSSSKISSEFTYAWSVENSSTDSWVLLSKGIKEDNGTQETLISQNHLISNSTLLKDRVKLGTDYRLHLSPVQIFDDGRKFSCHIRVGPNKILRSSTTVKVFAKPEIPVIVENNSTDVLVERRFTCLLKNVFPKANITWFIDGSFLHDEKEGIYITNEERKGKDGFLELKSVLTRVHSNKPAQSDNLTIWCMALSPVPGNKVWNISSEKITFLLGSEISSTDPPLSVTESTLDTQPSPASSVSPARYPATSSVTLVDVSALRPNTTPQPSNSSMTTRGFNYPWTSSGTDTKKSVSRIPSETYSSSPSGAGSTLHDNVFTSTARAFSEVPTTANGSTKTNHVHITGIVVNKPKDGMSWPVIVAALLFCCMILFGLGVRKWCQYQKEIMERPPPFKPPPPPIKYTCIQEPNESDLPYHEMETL

TIGIT (human) [7] = target: T4, TIGIT (human); assay: flow cytometry, TIGIT-expressing cells
[8] = target: human ICOS as used for the 'ICOS OD' read-out of Table 14 (human); assay: binding read as OD; format not described
[9] = target: human CD28, full-length, expressed on transfected Expi293 cells (human) (UniProt P10747); assay: flow cytometry on CD28-expressing Expi293 cells

Sequence of human ICOS as used for the 'ICOS OD' read-out of Table 14 (human) (Q9Y6W8 whole entry): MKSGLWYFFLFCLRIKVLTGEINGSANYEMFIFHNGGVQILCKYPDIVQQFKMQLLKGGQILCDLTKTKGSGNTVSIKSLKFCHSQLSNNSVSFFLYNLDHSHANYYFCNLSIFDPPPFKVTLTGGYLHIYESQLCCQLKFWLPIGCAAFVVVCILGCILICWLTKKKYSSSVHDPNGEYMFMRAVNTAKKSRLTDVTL

B2: CD155 variant T45Q, S52M, L104E IgV-Fc (Fc fusion, not shown: a dimerising Fc or GST; small tags and cut ends)
chain: PGTGDVVVQAPTQVPGFLGDSVTLPCYLQVPNMEVTHVSQLQWARHGEMGSMAVFHQTQGPSYSESKRLEFVAARLGAELRNASLRMFGLRVEDEGNYTCEFVTFPQGSRSVDIWL
- MFI at 100 nM [3]: 6310
- MFI at 100 nM [4]: 2600
- MFI at 100 nM [5]: 79500

B3: CD155 G7E, P18T, Y30C, F91S IgV-Fc (Fc fusion, not shown: a dimerising Fc or GST; small tags and cut ends)
chain: PGTEDVVVQAPTQVTGFLGDSVTLPCCLQVPNMEVTHVSQLTWARHGESGSMAVFHQTQGPSYSESKRLEFVAARLGAELRNASLRMSGLRVEDEGNYTCLFVTFPQGSRSVDIWL
- MFI (CD226 (human)): 12900
- MFI (TIGIT (human) [6]): 13000
- MFI (CD96): 7910

B4: CD155 variant IgV-Fc P18S, S42G, T45V, F58L, S67W, L104N (Fc fusion, not shown: a dimerising Fc or GST; large carriers; small tags and cut ends)
chain: PGTGDVVVQAPTQVSGFLGDSVTLPCYLQVPNMEVTHVGQLVWARHGESGSMAVLHQTQGPSYWESKRLEFVAARLGAELRNASLRMFGLRVEDEGNYTCNFVTFPQGSRSVDIWL
- MFI at 100 nM (TIGIT (human) [7]): 14100 MFI

B5: CD155 variant T45Q, S52R, L104E IgV-Fc (Fc fusion, not shown: a dimerising Fc or GST; small tags and cut ends)
chain: PGTGDVVVQAPTQVPGFLGDSVTLPCYLQVPNMEVTHVSQLQWARHGERGSMAVFHQTQGPSYSESKRLEFVAARLGAELRNASLRMFGLRVEDEGNYTCEFVTFPQGSRSVDIWL
- MFI at 100 nM [3]: 3750
- MFI at 100 nM [4]: 2620
- MFI at 100 nM [5]: 122000

Further lines, results first:

- MFI at 20 nM [1]: 1250
- Fold Increase to WT IgV [2]: 0.75 fold
B1: WT CD112-Fc ECD, Q92692 32-360 (Fc fusion, not shown: a dimerising Fc or GST; small tags and cut ends)
chain: QDVRVQVLPEVRGQLGGTVELPCHLLPPVPGLYISLVTWQRPDAPANHQNVAAFHPKMGPSFPSPKPGSERLSFVSAKQSTGQDTEAELQDATLALHGLTVEDEGNYTCEFATFPKGSVRGMTWLRVIAKPKNQAEAQKVTFSQDPTTVALCISKEGRPPARISWLSSLDWEAKETQVSGTLAGTVTVTSRFTLVPSGRADGVTVTCKVEHESFEEPALIPVTLSVRYPPEVSISGYDDNWYLGRTDATLSCDVRSNPEPTGYDWSTTSGTFPTSAVAQGSQLVIHAVDSLFNTTFVCTVTNAVGMGRAEQVIFVRETPNTAGAGATGG

- ICOS OD parental ratio (ratio to WT ICOSL ECD-Fc) [8]: 1.76
- MFI [9]: 54 MFI
- MFI parental ratio (ratio to WT ICOSL ECD-Fc) [9]: 3
B6: ICOSL variant N52S/T113E ECD-Fc fusion (Fc fusion, UniProt O75144 19-256 with N52S T113E, looked up, part only)
extracellular domain: DTQEKEVRAMVGSDVELSCACPEGSRFDLNDVYVYWQTSESKTVVTYHIPQSSSLENVDSRYRNRALMSPAGMLRGDFSLRLFNVTPQDEQKFHCLVLSQSLGFQEVLSVEVELHVAANFSVPVVSAPHSPSQDELTFTCTSINGYPRPNVYWINKTDNSLLDQALQNDTVFLNMRGLYDVVSVLRIARTPSVNIGCCIENVLLQQNLTVGSQTGNDIGERDKITENPVSTGEKNAAT
modifications: extracellular domain human IgG1 Fc fusion

— patent US20200040059A1
